From patent US20230220080A1 (EPIMAB BIOTHERAPEUTICS, published 2023)

Key:
[1] = target: T1, hFactor X (Enzyme Research Laboratory) (human, UniProt P00742 41-488, limits assumed); assay: SPR Biacore X100, Ig captured by anti-Fc, 500 nM antigen
T1 construct: also called FX
Method: (§1) Affinity measurement by surface plasmon resonance: The kinetics of FIT-Ig binding to hFactor IX and hFactor X (Enzyme Research Laboratory) was determined by surface plasmon resonance with a Biacore X100 instrument (Biacore AB, Uppsala, Sweden) using HBS-EP (10 mM HEPES, pH 7.4, 150 mM NaCl, 3 mM EDTA, and 0.005% surfactant P20) at 25° C. Briefly, goat anti-human IgG Fc fragment specific polyclonal antibody (Pierce Biotechnology Inc, Rockford, Ill.) was directly immobilized across a CM5 research grade biosensor chip using a standard amine coupling kit according to manufacturer's instructions. Purified FIT-Ig samples were diluted in HEPES-buffered saline for capture across goat anti-human IgG Fc specific reaction surfaces and injected over reaction matrices at a flow rate of 5 μl/min. The association and dissociation rate constants, kon (M-1s-1) and koff (s-1) were determined under a continuous flow rate of 30 μL/min. Rate constants were derived by making kinetic binding measurements at 500 nM antigen concentrations. The equilibrium dissociation constant (M) of the reaction between FIT-Ig and the target proteins was then calculated from the kinetic rate constants by the following formula: KD=koff/kon. Aliquots of antigen samples were also simultaneously injected over a blank reference and reaction CM surface to record and subtract any nonspecific binding background to eliminate the majority of the refractive index change and injection noise. Surfaces were regenerated with two subsequent 25 ml injections of 10 mM Glycine (pH 1.5) at a flow rate of 10 μL/min. The anti-Fc antibody immobilized surfaces were completely regenerated and retained their full capture capacity over twelve cycles.

[2] = target: T2, hFactor IX (Enzyme Research Laboratory) (human, UniProt P00740 47-461); assay: as above
T2 construct: also called FIX
Method: as §1

[3] = target: T3, recombinant human IL-17 (human, UniProt Q16552 24-155); assay: SPR Biacore, Ig captured by anti-Fc, antigen injected
T3 construct: also called rhIL-17; hIL-17
Method: (§2) The kinetics of FIT-Ig binding to rhIL-17 and rhIL-20 was determined by surface plasmon resonance (Table 5) with a Biacore X100 instrument (Biacore AB, Uppsala, Sweden) using HBS-EP (10 mM HEPES, pH 7.4, 150 mM NaCl, 3 mM EDTA, and 0.005% surfactant P20) at 25° C. Briefly, goat anti-human IgG Fcγ fragment specific polyclonal antibody (Pierce Biotechnology Inc, Rockford, Ill.) was directly immobilized across a CM5 research grade biosensor chip using a standard amine coupling kit according to manufacturer's instructions. Purified FIT-Ig samples were diluted in HEPES-buffered saline for capture across goat anti-human IgG Fc specific reaction surfaces and injected over reaction matrices at a flow rate of 5 μl/min. The association and dissociation rate constants, kon (M-1s-1) and koff (s-1) were determined under a continuous flow rate of 30 μL/min. […] The equilibrium dissociation constant (M) of the reaction between FIT-Ig and the target proteins was then calculated from the kinetic rate constants by the following formula: KD=koff/kon. Aliquots of antigen samples were also simultaneously injected over a blank reference and reaction CM surface to record and subtract any nonspecific binding background to eliminate the majority of the refractive index change and injection noise. Surfaces were regenerated with two subsequent 25 ml injections of 10 mM Glycine (pH 1.5) at a flow rate of 10 μL/min.

[4] = target: T3, recombinant human IL-17; assay: cell-based or functional assay
[5] = target: T4, recombinant human IL-20 (human, UniProt Q9NYY1 25-176); assay: SPR Biacore, Ig captured by anti-Fc, antigen injected
T4 construct: also called rhIL-20; hIL-20
T4 sequence (looked up): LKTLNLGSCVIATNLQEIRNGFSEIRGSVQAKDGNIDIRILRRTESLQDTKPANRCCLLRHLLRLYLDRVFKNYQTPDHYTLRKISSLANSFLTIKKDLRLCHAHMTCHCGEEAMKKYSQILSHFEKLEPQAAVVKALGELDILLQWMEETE
Method: as §2

[6] = target: T4, recombinant human IL-20; assay: cell-based or functional assay

T3 sequence (Q16552 24-155 limits assumed): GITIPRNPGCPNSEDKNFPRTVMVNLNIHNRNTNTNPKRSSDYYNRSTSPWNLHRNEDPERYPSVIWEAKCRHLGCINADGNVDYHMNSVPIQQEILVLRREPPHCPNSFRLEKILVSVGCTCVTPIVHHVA

B1: FIT014a Factor IX (Factor IX Ab)/Factor X (Factor X Ab) (bispecific antibody, human IgG4 S228P, kappa)
chain 1: DIQMTQSPSSLSASVGDRVTITCKASRNIERQLAWYQQKPGQAPELLIYQASRKESGVPDRFSGSRYGTDFTLTISSLQPEDIATYYCQQYSDPPLTFGGGTKVEIKRTVAAPSVFIFPPSDEQLKSGTASVVCLLNNFYPREAKVQWKVDNALQSGNSQESVTEQDSKDSTYSLSSTLTLSKADYEKHKVYACEVTHQGLSSPVTKSFNRGECQVQLVQSGSELKKPGASVKVSCKASGYTFTDNNMDWVRQAPGQGLEWMGDINTRSGGSIYNEEFQDRVIMTVDKSTDTAYMELSSLRSEDTATYHCARRKSYGYYLDEWGEGTLVTVSSASTKGPSVFPLAPCSRSTSESTAALGCLVKDYFPEPVTVSWNSGALTSGVHTFPAVLQSSGLYSLSSVVTVPSSSLGTQTYTCNVDHKPSNTKVDKRVESKYGPPCPPCPAPEFLGGPSVFLFPPKPKDTLMISRTPEVTCVVVDVSQEDPEVQFNWYVDGVEVHNAKTKPREEQYNSTYRVVSVLTVLHQDWLNGKEYKCKVSNKGLPSSIEKTISKAKGQPREPQVYTLPPSQEEMTKNQVSLTCLVKGFYPSDIAVEWESNGQPENNYKTTPPVLDSDGSFFLYSKLTVDKSRWQEGNVFSCSVMHEALHNHYTQESLSLSP
chain 2: QVQLVESGGGLVQPGGSLRLSCAASGFTFSYYDIQWVRQAPGKGLEWVSSISPSGQSTYYRREVKGRFTISRDNSKNTLYLQMNSLRAEDTAVYYCARRTGREYGGGWYFDYWGQGTLVTVSSASTKGPSVFPLAPSSKSTSGGTAALGCLVKDYFPEPVTVSWNSGALTSGVHTFPAVLQSSGLYSLSSVVTVPSSSLGTQTYICNVNHKPSNTKVDKKVEPKSC
chain 3: DIQMTQSPSSLSASVGDRVTITCKASRNIERQLAWYQQKPGQAPELLIYQASRKESGVPDRFSGSRYGTDFTLTISSLQPEDIATYYCQQYSDPPLTFGGGTKVEIKRTVAAPSVFIFPPSDEQLKSGTASVVCLLNNFYPREAKVQWKVDNALQSGNSQESVTEQDSKDSTYSLSSTLTLSKADYEKHKVYACEVTHQGLSSPVTKSFNRGEC
notes: leader left out; also called FIT-Ig 014a
- Kd [1]: 10 nM
- koff [1]: 0.000776 s⁻¹
- kon [1]: 77500 M⁻¹ s⁻¹
- Kd [2]: 9.91 nM
- koff [2]: 0.000332 s⁻¹
- kon [2]: 33500 M⁻¹ s⁻¹

B2: Factor X mAb (antibody, V domains shown)
VH: QVQLVQSGSELKKPGASVKVSCKASGYTFTDNNMDWVRQAPGQGLEWMGDINTRSGGSIYNEEFQDRVIMTVDKSTDTAYMELSSLRSEDTATYHCARRKSYGYYLDEWGEGTLVTVSS
VL: DIQMTQSPSSLSASVGDRVTITCKASRNIERQLAWYQQKPGQAPELLIYQASRKESGVPDRFSGSRYGTDFTLTISSLQPEDIATYYCQQYSDPPLTFGGGTKVEIK
notes: parental mAb; also called mAb FX; Factor X Ab
- Kd [1]: 45.1 nM
- koff [1]: 0.00142 s⁻¹
- kon [1]: 31500 M⁻¹ s⁻¹

B3: anti-IL-17 mAb (clone LY) (antibody, V domains shown)
VH: QVQLVQSGAEVKKPGSSVKVSCKASGYSFTDYHIHWVRQAPGQGLEWMGVINPMYGTTDYNQRFKGRVTITADESTSTAYMELSSLRSEDTAVYYCARYDYFTGTGVYWGQGTLVTVSS
VL: DIVMTQTPLSLSVTPGQPASISCRSSRSLVHSRGNTYLHWYLQKPGQSPQLLIYKVSNRFIGVPDRFSGSGSGTDFTLKISRVEAEDVGVYYCSQSTHLPFTFGQGTKLEIK
notes: parental mAb
- Kd [3]: 0.0218 nM
- koff [3]: 1.8e-05 s⁻¹
- kon [3]: 824000 M⁻¹ s⁻¹
- Neutralization Potency IC50 (GROα production by Hs27 cells) [4]: 0.101 nM

B4: anti-hIL-20 mAb (clone 15D2) (antibody, V domains shown)
VH: QVQLVQSGAEVKRPGASVKVSCKASGYTFTNDIIHWVRQAPGQRLEWMGWINAGYGNTQYSQNFQDRVSITRDTSASTAYMELISLRSEDTAVYYCAREPLWFGESSPHDYYGMDVWGQGTTVTVSS
VL: AIQLTQSPSSLSASVGDRVTITCRASQGISSALAWYQQKPGKAPKLLIYDASSLESGVPSRFSGSGSGTDFTLTISSLQPEDFATYYCQQFNSYPLTFGGGTKVEIK
notes: parental mAb
- Kd [5]: 0.05 nM
- koff [5]: 8.3e-05 s⁻¹
- kon [5]: 1.7e+06 M⁻¹ s⁻¹
- Neutralization Potency IC50 (IL-20R+ BAF3 cell proliferation) [6]: 0.05 nM
